Measurements reported in paper PMC3014985.
Where two headings read alike, the source gives them in different places.

Key:
Test in all cases: SEC
[1] = biological target: TOSV NP (Toscana virus nucleoprotein after removal of the TRX-6His tag) (Toscana virus (strain AR2005)) (UniProt P21701)
[2] = biological target: TOSV NP (Toscana virus nucleoprotein after removal of the TRX-6His tag) (Toscana virus (strain AR2005)) (UniProt P21701); remark: listed apart in the source
[3] = biological target: 6His-TOSV NP (Toscana virus nucleoprotein with N-terminal hexahistidine tag), refolded (Toscana virus (strain AR2005)) (UniProt P21701)
[4] = biological target: RVFV NP (Rift Valley fever virus nucleoprotein after removal of the TRX-6His tag) (Rift Valley fever virus (strain Smithburn)) (UniProt P21700)

TOSV NP (Toscana virus nucleoprotein after removal of the TRX-6His tag) (from UniProt P21701 1-253) (natural protein)
stoichiometry N [1]: 6 | stoichiometry N [2]: 3

6His-TOSV NP (Toscana virus nucleoprotein with N-terminal hexahistidine tag), refolded (from UniProt P21701 1-253) (natural protein)
stoichiometry N [3]: 3

RVFV NP (Rift Valley fever virus nucleoprotein after removal of the TRX-6His tag) (from UniProt P21700 1-245) (natural protein)
stoichiometry N [4]: 3
